Here are results for five molecules from patent US11111296B2, “Compositions and methods for treating cardiac dysfunction” (THE BROAD INSTITUTE, INC., priority 2015, dated 2021).

The test system of the assay is myosin heavy chain in cells. Put plainly: cachexia functional assay (levels of myosin heavy chain in treated cells). The class given is cell-based. Conditions: for cachexia-inducing activity of RAGE ligands: FIG. 8. The source says: The compounds that are thus designed or selected may further be tested in an in vitro, in vivo, or ex vivo assays to determine if they regulate RAGE. Such assays are known to one skilled in the art. In some embodiments, the assay is a cachexia functional assay as described herein and further described in PCT/US2014/068631, which is incorporated herewith in its entirety.
In studies described herein below, a refined model of the cachectic signal was obtained (FIG. 2). Functional sites on the RAGE polypeptide were determined using a combination of experiments mapping binding interface(s) of anti-RAGE antibodies with RAGE polypeptide using hydrogen-deuterium exchange (HDEX) reactions and cachexia functional assays. As described elsewhere herein, results of the cachexia functional assay indicate whether a candidate agent (e.g., a particular anti-RAGE antibody) has cachexia-inhibitory or cachexia-inducing activity, as measured, for example, by levels of myosin heavy chain in cells treated with the candidate agent relative to a control or baseline myosin heavy chain level.

As for `CCCCCC(=Cc1ccccc1)CN(CCc1c[nH]c2ccccc12)C(=O)c1ccc(Cl)c([N+](=O)[O-])c1` [FPS3, reference compound], where the note is “cells treated with various concentrations of FPS3 (FIG. 7B)”, the “cachexia-inhibitory activity (levels of myosin heavy chain)” value was “had cachexia-inhibitory activity”.

B1: S100A8/9: RAGE ligand, cachexia-inducing (protein)
chain 1: MLTELEKALNSIIDVYHKYSLIKGNFHAVYRDDLKKLLETECPQYIRKKGADVWFKELDINTDGAVNFQEFLILVIKMGVAAHKKSHEESHKE
chain 2: MTCKMSQLERNIETIINTFHQYSVKLGHPDTLNQGEFKELVRKDLQNFLKKENKNEKVIEHIMEDLDTNADKQLSFEEFIMLMARLTWASHEKMHEGDEGPGHHHKPGLGEGTP
With B1, the “cachexia-inducing activity of RAGE ligands” value (“cachexia-inducing activity” below) is given as “cachexia-inducing”.

B2: S100P: RAGE ligand, non-cachexia-inducing (protein)
chain: MTELETAMGMIIDVFSRYSGSEGSTQTLTKGELKVLMEKELPGFLQSGKDKDAVDKLLKDLDANGDAQVDFSEFIVFVAAITSACHKYFEKAGLK
On to B2, for which the “cachexia-inducing activity” value is reported as “non-cachexia-inducing”.

B3: S100A7: RAGE ligand, cachexia-inducing; sequence NP_002954.2 (protein)
chain: MSNTQAERSIIGMIDMFHKYTRRDDKIEKPSLLTMMKENFPNFLSACDKKGTNYLADVFEKKDKNEDKKIDFSEFLSLLGDIATDYHKQSHGAAPCSGGSQ
Regarding B3, the “cachexia-inducing activity” value is listed as “cachexia-inducing”.

B4: S100B: RAGE ligand, non-cachexia-inducing (protein)
chain: SELEKAMVALIDVFHQYSGREGDKHKLKKSELKELINNELSHFLEEIKEQEVVDKVMETLDNDGDGECDFQEFMAFVAMVTTACHEFFEHE
In the case of B4, the “cachexia-inducing activity” value is “non-cachexia-inducing”.
